Assay [1] has as its target CaVβ2a core (unimolecular CaVβ2a construct) (rat). Nature of the assay: ITC; 20 μM AID peptide titrated into 2 μM CaVβ2a core; 15 °C; 150 mM KCl, 10 mM potassium phosphate, pH 7.3; single site binding model. (In ITC the heat of successive injections is recorded.)
The target of assay [2] is CaVβ2a core (Rattus norvegicus) (UniProt Q8VGC3). Kind of assay: ITC. As to conditions: cited from earlier work.
For assay [3], the target named is Human CaV1.2 (α1C77) (human) (UniProt Q13936).
Chain of Human CaV1.2 (α1C77) (human) (Q13936 other isoform, or with tags, fused parts or gaps): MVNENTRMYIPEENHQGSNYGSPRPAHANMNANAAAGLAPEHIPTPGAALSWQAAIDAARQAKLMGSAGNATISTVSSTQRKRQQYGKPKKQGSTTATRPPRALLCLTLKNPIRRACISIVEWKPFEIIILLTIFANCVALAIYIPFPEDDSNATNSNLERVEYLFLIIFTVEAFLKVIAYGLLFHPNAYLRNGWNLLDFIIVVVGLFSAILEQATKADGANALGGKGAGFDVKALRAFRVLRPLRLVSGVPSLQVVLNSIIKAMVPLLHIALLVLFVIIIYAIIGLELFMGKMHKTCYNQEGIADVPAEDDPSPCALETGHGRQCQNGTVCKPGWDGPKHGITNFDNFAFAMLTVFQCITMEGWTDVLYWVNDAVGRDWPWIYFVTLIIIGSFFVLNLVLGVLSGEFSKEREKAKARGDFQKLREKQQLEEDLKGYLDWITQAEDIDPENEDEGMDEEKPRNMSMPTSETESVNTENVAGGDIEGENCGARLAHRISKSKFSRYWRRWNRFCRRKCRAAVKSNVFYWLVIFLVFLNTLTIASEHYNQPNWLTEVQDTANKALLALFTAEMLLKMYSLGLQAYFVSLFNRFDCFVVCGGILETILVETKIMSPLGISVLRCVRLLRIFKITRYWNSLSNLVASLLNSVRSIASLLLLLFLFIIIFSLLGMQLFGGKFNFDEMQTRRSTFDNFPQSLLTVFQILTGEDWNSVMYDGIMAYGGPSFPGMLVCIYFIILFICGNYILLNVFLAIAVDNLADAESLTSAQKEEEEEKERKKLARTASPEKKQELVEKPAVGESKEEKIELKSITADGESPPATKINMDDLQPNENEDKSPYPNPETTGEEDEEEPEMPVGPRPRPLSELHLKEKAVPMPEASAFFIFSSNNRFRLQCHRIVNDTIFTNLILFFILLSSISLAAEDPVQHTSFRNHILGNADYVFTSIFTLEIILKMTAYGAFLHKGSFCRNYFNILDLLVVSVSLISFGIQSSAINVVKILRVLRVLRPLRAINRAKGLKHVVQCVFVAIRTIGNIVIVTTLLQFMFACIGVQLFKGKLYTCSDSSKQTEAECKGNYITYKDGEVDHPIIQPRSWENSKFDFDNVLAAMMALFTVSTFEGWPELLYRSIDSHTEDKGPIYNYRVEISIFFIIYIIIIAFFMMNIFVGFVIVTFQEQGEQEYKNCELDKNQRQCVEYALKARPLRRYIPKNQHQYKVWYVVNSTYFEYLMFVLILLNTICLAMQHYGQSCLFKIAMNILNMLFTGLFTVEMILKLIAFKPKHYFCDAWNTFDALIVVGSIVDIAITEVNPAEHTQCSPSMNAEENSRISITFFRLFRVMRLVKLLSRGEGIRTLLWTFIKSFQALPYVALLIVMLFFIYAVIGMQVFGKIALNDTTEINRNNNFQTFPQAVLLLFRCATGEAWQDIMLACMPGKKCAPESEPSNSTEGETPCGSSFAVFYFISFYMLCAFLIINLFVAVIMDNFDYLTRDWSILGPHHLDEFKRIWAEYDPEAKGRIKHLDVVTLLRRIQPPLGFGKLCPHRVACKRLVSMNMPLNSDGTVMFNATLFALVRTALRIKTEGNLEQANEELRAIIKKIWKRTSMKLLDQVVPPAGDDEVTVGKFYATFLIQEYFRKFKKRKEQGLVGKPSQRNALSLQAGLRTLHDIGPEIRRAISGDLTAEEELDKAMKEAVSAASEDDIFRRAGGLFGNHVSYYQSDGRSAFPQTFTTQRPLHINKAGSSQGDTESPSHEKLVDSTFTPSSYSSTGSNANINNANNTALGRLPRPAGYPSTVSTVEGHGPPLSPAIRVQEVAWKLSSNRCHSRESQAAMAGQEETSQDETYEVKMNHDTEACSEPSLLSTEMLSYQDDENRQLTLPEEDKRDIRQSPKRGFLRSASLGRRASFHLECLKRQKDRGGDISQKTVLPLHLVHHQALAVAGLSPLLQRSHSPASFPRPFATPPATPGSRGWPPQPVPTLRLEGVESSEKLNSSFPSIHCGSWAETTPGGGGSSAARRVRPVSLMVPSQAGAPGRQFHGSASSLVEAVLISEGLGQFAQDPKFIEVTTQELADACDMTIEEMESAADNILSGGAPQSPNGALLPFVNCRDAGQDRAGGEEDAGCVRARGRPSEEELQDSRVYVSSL
The target in assay [4] is Human CaV1.2-Y437A (human).

Consider 4 substances from publication PMC5481814, “Stapled Voltage-Gated Calcium Channel (CaV) α-Interaction Domain (AID) Peptides Act As Selective Protein–Protein Interaction Inhibitors of CaV Function” (ACS Chemical Neuroscience, 2017).

Usually Kd stands for the concentration at which binding is half-saturated. As a reminder, the stoichiometry N is the number of molecules, sites or subunits per partner or assembly.

Chain of CaVβ3 (expressed in oocytes) (P54286 whole entry): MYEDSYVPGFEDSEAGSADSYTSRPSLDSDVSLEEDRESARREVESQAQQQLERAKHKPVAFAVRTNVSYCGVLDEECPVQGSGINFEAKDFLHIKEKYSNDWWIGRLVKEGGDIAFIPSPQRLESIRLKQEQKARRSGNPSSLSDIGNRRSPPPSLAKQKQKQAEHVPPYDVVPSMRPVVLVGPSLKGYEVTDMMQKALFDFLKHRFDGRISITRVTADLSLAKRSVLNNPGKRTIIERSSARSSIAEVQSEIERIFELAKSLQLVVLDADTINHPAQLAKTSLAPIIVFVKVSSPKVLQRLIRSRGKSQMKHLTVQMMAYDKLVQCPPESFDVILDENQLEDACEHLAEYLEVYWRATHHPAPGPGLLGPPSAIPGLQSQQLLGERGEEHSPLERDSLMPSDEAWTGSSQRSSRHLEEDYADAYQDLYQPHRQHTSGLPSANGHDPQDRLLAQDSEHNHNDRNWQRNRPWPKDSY
Chain of CaV1.2 AID peptide AID (Q13936 425-448): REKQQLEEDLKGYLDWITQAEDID
Chain of CaVβ2a core (Rattus norvegicus) (Q8VGC3 68-476): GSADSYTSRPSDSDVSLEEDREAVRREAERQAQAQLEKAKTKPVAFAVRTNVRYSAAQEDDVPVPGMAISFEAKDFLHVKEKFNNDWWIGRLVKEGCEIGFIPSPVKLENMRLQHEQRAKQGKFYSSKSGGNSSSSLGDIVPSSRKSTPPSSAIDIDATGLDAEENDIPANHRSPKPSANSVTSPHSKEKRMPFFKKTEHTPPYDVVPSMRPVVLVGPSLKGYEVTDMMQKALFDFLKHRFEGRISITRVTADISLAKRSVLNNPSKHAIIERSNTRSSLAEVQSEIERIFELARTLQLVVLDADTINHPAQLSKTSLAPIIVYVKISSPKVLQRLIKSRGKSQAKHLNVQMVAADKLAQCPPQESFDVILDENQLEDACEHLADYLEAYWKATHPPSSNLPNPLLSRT

For the substance “CaV1.2 AID peptide (α-interaction domain, unmodified)”, in assay [1], the equilibrium dissociation constant (Kd) was found to be 6.6 nM, the dH was -15.6 kcal mol^–1 and the stoichiometry N came out at 0.94.

In the case of “CaV1.2 AID peptide AID (from UniProt Q13936)”, the dissociation constant (Kd) in assay [2] is 5.3 nM.

In assay [3], “CaVβ3 (expressed in oocytes) (from UniProt P54286 1-477) (natural protein)” registered a time constant τ for the loss of CaV1.2:CaVβ3 channels (rundown of Imax, single exponential fit) after injection of 2.8 mM AID peptide of 4.6 min and a time constant τ for the loss of CaV1.2:CaVβ3 channels (rundown of Imax, single exponential fit) after injection of 2.8 mM AID-CAP peptide of 5.3 min.

As to “Rat CaVβ2a (expressed in oocytes) (natural protein)”, in assay [4], the time constant τ of the rundown of Imax of CaV1.2-Y437A:CaVβ2a currents after injection of 400 μM AID peptide (single exponential fit) turned out to be 5.3 min and the time constant τ of the rundown of Imax of CaV1.2-Y437A:CaVβ2a currents after injection of 400 μM AID-CAP peptide (single exponential fit) was determined as 4.1 min.
